{
  "source": "patent US20190248877A1",
  "about": "(Hoffmann-La Roche, published 2019)",
  "binders": {"B1": {"name": "anti-TnC clone 18D4 Fab fragment (Fab, V domains shown)", "VH": "QVQLVQSGAEVKKPGSSVKVSCKASGGTFSSYAISWVRQAPGQGLEWMGGIIPIFGTANYAQKFQGRVTITADKSTSTAYMELSSLRSEDTAVYYCAKGNFYGGLDYWGQGTTVTVSS", "VL": "DIQMTQSPSTLSASVGDRVTITCRASQSISSWLAWYQQKPGKAPKLLIYDASSLESGVPSRFSGSGSGTEFTLTISSLQPDDFATYYCQQNKKFPSGTFGQGTKVEIK"}},
  "experiment_in_all_cases": "SPR ProteOn XPR36, biotinylated antigen on NLC chip, Fab as analyte, 25 C",
  "key": {"huTNC A4 B": {"target": "T1, huTNC A4 B (human, biotin on the C-terminal avi-tag (BirA, site-specific))", "T1 chain": "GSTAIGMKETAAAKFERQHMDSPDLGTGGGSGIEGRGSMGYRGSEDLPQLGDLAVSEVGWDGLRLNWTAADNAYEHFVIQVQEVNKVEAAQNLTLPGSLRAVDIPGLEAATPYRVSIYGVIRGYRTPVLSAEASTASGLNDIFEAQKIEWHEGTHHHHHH", "procedure": "(§1) Immobilization of antigens (ligand): Recombinant antigens were diluted with PBST (10 mM phosphate, 150 mM sodium chloride pH 7.4, 0.005% Tween 20) to 10 μg/ml, then injected at 30 μl/minute in vertical orientation. Injection of analytes: For ‘one-shot kinetics’ measurements, injection direction was changed to horizontal orientation, two-fold dilution series of purified Fab were injected simultaneously along separate channels 1-5, with association times of 200 s, and dissociation times of 240 s, respectively. Buffer (PBST) was injected along the sixth channel to provide an “in-line” blank for referencing. Association rate constants (kₒₙ) and dissociation rate constants (koff) were calculated using a simple one-to-one Langmuir binding model in ProteOn Manager v3.1 software by simultaneously fitting the association and dissociation sensorgrams. The equilibrium dissociation constant (KD) was calculated as the ratio koff/kₒₙ."}, "[1]": {"target": "GST huTNCfn5 mu A124 BC hu fn6 B (human fn5 and fn6, murine extra splice …, biotin on the C-terminal avi-tag (BirA, site-specific))", "procedure": "as §1"}, "[2]": {"target": "T2, GST huTNC fn5 A1234 fn6 B (human, biotin on the C-terminal avi-tag (BirA, site-specific))", "T2 chain": "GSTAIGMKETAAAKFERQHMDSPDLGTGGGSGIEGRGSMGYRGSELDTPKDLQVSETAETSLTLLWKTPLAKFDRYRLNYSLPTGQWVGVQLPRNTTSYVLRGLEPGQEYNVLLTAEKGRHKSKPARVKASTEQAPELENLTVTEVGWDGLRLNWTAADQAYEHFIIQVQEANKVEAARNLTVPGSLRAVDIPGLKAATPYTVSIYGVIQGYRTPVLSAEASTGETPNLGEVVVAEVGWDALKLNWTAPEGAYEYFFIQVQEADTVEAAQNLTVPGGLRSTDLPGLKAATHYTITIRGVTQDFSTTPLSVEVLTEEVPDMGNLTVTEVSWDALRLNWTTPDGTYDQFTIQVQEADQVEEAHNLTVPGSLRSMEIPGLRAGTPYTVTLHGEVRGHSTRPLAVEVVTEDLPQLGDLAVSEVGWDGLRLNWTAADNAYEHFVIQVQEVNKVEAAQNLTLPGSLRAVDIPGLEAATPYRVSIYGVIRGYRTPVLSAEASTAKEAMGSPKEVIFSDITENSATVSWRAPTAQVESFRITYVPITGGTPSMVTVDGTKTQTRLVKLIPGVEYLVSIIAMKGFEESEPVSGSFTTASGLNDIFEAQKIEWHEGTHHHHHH", "procedure": "as §1"}, "[3]": {"target": "T3, GST huTNC fn5 A1234 BC fn6 B (human, UniProt P24821 984-1798, biotin on the C-terminal avi-tag (BirA, site-specific))", "T3 construct": "also called Human GST-fused TnC fn5 A1234 BC fn6", "T3 sequence": "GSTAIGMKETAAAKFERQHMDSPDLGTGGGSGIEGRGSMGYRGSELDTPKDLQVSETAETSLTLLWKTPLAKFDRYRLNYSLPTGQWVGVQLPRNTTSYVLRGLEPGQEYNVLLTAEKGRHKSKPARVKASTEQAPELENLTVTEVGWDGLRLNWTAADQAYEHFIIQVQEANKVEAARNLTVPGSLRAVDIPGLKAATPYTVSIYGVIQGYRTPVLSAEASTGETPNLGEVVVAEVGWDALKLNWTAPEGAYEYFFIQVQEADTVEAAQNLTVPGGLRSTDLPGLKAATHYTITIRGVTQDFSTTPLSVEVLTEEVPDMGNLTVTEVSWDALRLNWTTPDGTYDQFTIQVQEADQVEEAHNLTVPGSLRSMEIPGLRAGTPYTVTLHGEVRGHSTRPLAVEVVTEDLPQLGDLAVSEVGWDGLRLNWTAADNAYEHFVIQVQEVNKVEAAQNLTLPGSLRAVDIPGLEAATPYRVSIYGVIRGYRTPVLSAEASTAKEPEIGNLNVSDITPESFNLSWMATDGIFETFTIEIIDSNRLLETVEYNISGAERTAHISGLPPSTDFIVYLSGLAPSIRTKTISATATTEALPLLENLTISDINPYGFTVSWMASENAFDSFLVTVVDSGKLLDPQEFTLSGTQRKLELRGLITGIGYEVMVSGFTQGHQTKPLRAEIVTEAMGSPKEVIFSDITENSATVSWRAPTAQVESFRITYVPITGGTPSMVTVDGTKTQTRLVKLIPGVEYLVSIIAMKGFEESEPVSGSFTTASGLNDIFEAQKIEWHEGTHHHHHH", "procedure": "as §1"}, "huTNC A1 B": {"target": "T4, huTNC A1 B (human)", "T4 chain": "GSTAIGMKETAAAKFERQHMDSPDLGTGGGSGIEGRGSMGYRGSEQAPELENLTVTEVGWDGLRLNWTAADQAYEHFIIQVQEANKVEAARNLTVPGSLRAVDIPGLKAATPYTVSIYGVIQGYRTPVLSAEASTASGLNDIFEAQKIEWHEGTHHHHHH", "procedure": "as §1"}},
  "data": [
    {"binder": "B1", "values": [
      {"measurement": "Kd", "setting": "huTNC A4 B", "result": 2, "unit": "nM"},
      {"measurement": "Kd", "setting": "[1]", "result": 11.2, "unit": "nM"},
      {"measurement": "Kd", "setting": "[2]", "result": 5, "unit": "nM"},
      {"measurement": "Kd", "setting": "[3]", "result": 4, "unit": "nM"},
      {"measurement": "Kd", "setting": "huTNC A1 B", "result": 5.6, "unit": "nM"}
    ]}
  ]
}
